# Assays:
# Experiment in all cases: co-IP; anti-HA immunoprecipitates (12CA5 with protein A-Sepharose, or F7 anti-HA-agarose when probing for Mst3 or Mst4; 1.5 h, 4°C) of lysates (1% Nonidet P-40, 0.135 M NaCl, 10% glycerol, 20 mM Tris pH 8.0) of HEK293 cells transfected with HA-striatins; endogenous partners by immunoblot, partner/HA-striatin ratio by chemilumimager against wild type; 50 mM NaF and 100 nM okadaic acid in the lysis buffer in the …
# Conditions in all cases: partners not purified
# [1] = target: T1, HA-tagged K270Stop striatin (human, UniProt O43815 1-269)
# T1 construct: striatin, human, C-terminal truncation by a stop codon at K270; source: HEK293, transfected, in lysate; not shown: HA, N-terminal, kept
# T1 sequence (looked up): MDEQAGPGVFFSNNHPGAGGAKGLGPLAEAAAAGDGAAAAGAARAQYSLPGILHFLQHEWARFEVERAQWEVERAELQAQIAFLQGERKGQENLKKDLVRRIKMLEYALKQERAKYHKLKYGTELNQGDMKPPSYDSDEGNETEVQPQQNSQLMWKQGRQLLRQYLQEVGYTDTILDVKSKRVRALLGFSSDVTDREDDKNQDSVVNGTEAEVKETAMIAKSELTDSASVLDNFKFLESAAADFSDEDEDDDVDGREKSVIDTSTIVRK
# [2] = target: T2, HA-tagged F457Stop striatin (human, UniProt O43815 1-456)
# T2 construct: striatin, human, C-terminal truncation by a stop codon at F457 (loss of seven of eight WD-repeats); residues 1-456 by the mutant's name; source: HEK293, transfected, in lysate; not shown: HA, N-terminal, kept
# T2 sequence (looked up): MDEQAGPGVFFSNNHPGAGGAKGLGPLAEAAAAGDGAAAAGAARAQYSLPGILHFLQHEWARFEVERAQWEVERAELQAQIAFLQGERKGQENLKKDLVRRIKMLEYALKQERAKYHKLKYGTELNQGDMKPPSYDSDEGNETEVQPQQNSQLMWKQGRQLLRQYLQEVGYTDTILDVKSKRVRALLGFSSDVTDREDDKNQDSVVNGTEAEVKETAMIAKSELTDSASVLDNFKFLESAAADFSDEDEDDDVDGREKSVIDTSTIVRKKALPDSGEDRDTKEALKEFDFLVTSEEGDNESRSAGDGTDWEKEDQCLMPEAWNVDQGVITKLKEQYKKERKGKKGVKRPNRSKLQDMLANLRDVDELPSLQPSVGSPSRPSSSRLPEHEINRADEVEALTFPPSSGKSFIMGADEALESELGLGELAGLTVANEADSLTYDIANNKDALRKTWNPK
# [3] = target: T3, HA-tagged Δ(3-309) striatin (human, UniProt O43815 1-780, Δ(3-309))
# T3 construct: source: HEK293, transfected, in lysate; not shown: HA, N-terminal, kept
# T3 sequence (looked up): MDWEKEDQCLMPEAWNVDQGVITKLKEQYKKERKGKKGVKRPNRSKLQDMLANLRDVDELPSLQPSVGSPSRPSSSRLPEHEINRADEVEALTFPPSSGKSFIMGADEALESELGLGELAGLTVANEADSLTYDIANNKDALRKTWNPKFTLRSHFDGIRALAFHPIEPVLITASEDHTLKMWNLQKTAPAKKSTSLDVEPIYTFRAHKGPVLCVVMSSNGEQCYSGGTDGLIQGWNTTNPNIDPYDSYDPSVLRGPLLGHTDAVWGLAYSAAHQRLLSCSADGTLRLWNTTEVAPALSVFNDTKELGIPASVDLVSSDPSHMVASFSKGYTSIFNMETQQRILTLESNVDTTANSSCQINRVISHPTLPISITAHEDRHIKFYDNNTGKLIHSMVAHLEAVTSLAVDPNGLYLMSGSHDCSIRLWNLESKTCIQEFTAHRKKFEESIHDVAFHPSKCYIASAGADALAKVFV
binder,measurement,setting,value
"Mob3/phocein (natural protein, human (endogenous in HEK293), UniProt Q9Y3A3 1-225, looked up, source: endogenous, HEK293 lysate) MVMAEGTAVLRRNRPGTKAQDFYNWPDESFDEMDSTLAVQQYIQQNIRADCSNIDKILEPPEGQDEGVWKYEHLRQFCLELNGLAVKLQSECHPDTCTQMTATEQWIFLCAAHKTPKECPAIDYTRHTLDGAACLLNSNKYFPSRVSIKESSVAKLGSVCRRIYRIFSHAYFHHRQIFDEYENETFLCHRFTKFVMKYNLMSKDNLIVPILEEEVQNSVSGESEA",percent reduction in binding against wild-type striatin,[1],45%
same,percent reduction in binding against wild-type striatin,[2],29%
same,percent of the wild-type level bound,[3],~40 % of wild-type level

# — PMC3217859, “Protein phosphatase 2a (PP2A) binds within the oligomerization domain of striatin and regulates the phosphorylation and activation of the mammalian Ste20-Like kinase Mst3” (BMC Biochemistry, 2011)
